According to the supplement of paper PMC10724198:
± gives the standard deviation of the averaged measurements.

Experiments:
Saccharomyces cerevisiae [1] = experiment: protein stability index of tFT-peptide fusion (C-terminal peptide) (PSI (0-1 scale)); higher = more stable (slower turnover)
Procedure: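 MPS profiling in S. cerevisiae of the tFT-X12 degron library: putative degron peptides plus stable controls, 12 aa, fused to the C-terminus of a sfGFP-mCherry timer. Cells are FACS-sorted into 8 mCherry/sfGFP bins and deep-sequenced. PSI runs from 0 (unstable) to 1 (stable). Backgrounds are wild type, das1Δ and doa10Δ at 30 °C, and wild type, das1Δ, cdc34-1 and cdc53-1 at 37 °C; 2-3 technical replicates each.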

Saccharomyces cerevisiae [2] = experiment: as above; settings: genetic background: wild type; temperature: 30 C
[3] = genetic background: cdc34-1, temperature: 37 C
[4] = genetic background: cdc53-1, temperature: 37 C
[5] = genetic background: das1 deletion, temperature: 30 C
[6] = genetic background: das1 deletion, temperature: 37 C
[7] = genetic background: doa10 deletion, temperature: 30 C
[8] = genetic background: wild type, temperature: 30 C
[9] = genetic background: wild type, temperature: 37 C
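Also: PSI is a weighted mean of sequencing reads over stability bins, variants kept only with over 10 reads, mCherry proximal and sfGFP distal, peptide attached via GGGS linker.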

Sequence	protein stability index (Saccharomyces cerevisiae [1]; [3])	protein stability index (Saccharomyces cerevisiae [1]; [4])	protein stability index (Saccharomyces cerevisiae [1]; [5])	protein stability index (Saccharomyces cerevisiae [1]; [6])	protein stability index (Saccharomyces cerevisiae [1]; [7])	protein stability index (Saccharomyces cerevisiae [1]; [8])	protein stability index (Saccharomyces cerevisiae [1]; [9])	protein stability index (Saccharomyces cerevisiae [2])
WFGCSTVWVRVQ	0.286 ± 0.055	0.394 ± 0.0052	0.328 ± 0.037	0.502 ± 0.0075	0.0767 ± 0.0031	0.0787 ± 0.024	0.0591 ± 0.021	0.147 ± 0.0067
WFIPRSVCRWLF	0.515 ± 0.067	0.684 ± 0.028	0.611 ± 0.023	0.676 ± 0.033	0.0895 ± 0.017	0.0735 ± 0.026	0.116 ± 0.023	0.135 ± 0.0067
WFSAGSCRWVLC	0.58 ± 0.061	0.71 ± 0.023	0.543 ± 0.012	0.709 ± 0.013	0.126 ± 0.0071	0.1431 ± 0.00041	0.321 ± 0.027	0.24 ± 0.0076
WGAHRVRVSRIL	0.686 ± 0.034	0.768 ± 0.021	0.656 ± 0.028	0.742 ± 0.0081	0.295 ± 0.003	0.326 ± 0.043	0.516 ± 0.0052	0.509 ± 0.016
WLCVFVFGIFFV	0.146 ± 0.016	0.162 ± 0.01	0.179 ± 0.026	0.2894 ± 0.0021	0.292 ± 0.0061	0.186 ± 0.016	0.266 ± 0.0091	0.204 ± 0.016
WLFRCFLFVVGG	0.39 ± 0.025	0.441 ± 0.013	0.371 ± 0.025	0.46 ± 0.0069	0.413 ± 0.019	0.366 ± 0.016	0.4363 ± 0.0023	0.422 ± 0.0045
WLLVVCRGLVFR	0.227 ± 0.0051	0.228 ± 0.024	0.25 ± 0.036	0.4124 ± 0.0027	0.329 ± 0.023	0.236 ± 0.022	0.405 ± 0.018	0.319 ± 0.046
WQGWFLSLCIWV	0.2872 ± 0.0019	0.341 ± 0.0047	0.3 ± 0.031	0.404 ± 0.0047	0.317 ± 0.0065	0.296 ± 0.024	0.392 ± 0.025	0.348 ± 0.014
WQVPYQRLAILF	0.603 ± 0.021	0.656 ± 0.017	0.555 ± 0.03	0.681 ± 0.016	0.215 ± 0.017	0.247 ± 0.02	0.346 ± 0.011	0.309 ± 0.017
WRCLHLVYLFFH	0.395 ± 0.016	0.438 ± 0.036	0.365 ± 0.048	0.531 ± 0.047	0.192 ± 0.0042	0.173 ± 0.017	0.303 ± 0.013	0.286 ± 0.0091
WRVRFRLLAGFC	0.347 ± 0.038	0.4126 ± 0.0035	0.296 ± 0.021	0.421 ± 0.0046	0.073 ± 0.016	0.107 ± 0.027	0.206 ± 0.016	0.173 ± 0.018
WSFPFFLLPFLF	0.393 ± 0.0059	0.352 ± 0.0092	0.44 ± 0.022	0.5103 ± 0.0048	0.25 ± 0.0094	0.211 ± 0.014	0.305 ± 0.021	0.296 ± 0.034
WSFYVVGRLLVN	0.33 ± 0.031	0.383 ± 0.013	0.287 ± 0.024	0.45 ± 0.014	0.106 ± 0.0031	0.132 ± 0.0018	0.154 ± 0.015	0.124 ± 0.0045
WSHVPLAPLSCF	0.43 ± 0.017	0.442 ± 0.0048	0.337 ± 0.023	0.477 ± 0.0073	0.287 ± 0.0032	0.315 ± 0.023	0.42596 ± 0.00033	0.4567 ± 0.0039
WSVCLLLLGRFC	0.523 ± 0.013	0.604 ± 0.011	0.455 ± 0.026	0.617 ± 0.026	0.347 ± 0.0005	0.381 ± 0.024	0.554 ± 0.026	0.466 ± 0.018
WTRAHWFFQFFV	0.334 ± 0.061	0.677 ± 0.051	0.667 ± 0.018	0.739 ± 0.015	0.0772 ± 0.00094	0.0685 ± 0.0097	0.0858 ± 0.015	0.171 ± 0.0033
WVVVLFAYRGLR	0.57 ± 0.026	0.519 ± 0.12	0.362 ± 0.031	0.57 ± 0.038	0.323 ± 0.02	0.379 ± 0.037	0.559 ± 0.041	0.458 ± 0.088
WYMYVRMASFLV	0.534 ± 0.058	0.634 ± 0.05	0.489 ± 0.026	0.603 ± 0.018	0.302 ± 0.0084	0.287 ± 0.027	0.44 ± 0.0072	0.375 ± 0.026
YCDPSLIWLYLM	0.57 ± 0.012	0.714 ± 0.018	0.61 ± 0.021	0.727 ± 0.0077	0.1768 ± 0.0011	0.18 ± 0.012	0.275 ± 0.031	0.249 ± 0.02
YFICLSLVLFSY	0.163 ± 0.058	0.274 ± 0.05	0.215 ± 0.024	0.351 ± 0.032	0.202 ± 0.02	0.179 ± 0.03	0.306 ± 0.021	0.303 ± 0.069
